Reference: the DeepSol protein solubility set

test: soluble on expression in E. coli; label from the status in PepcDB or PDB records

Which “soluble on expression in E. coli” value does the source give for “MGHHHHHHSHMGNDKRSQIFTLSRYAGILRRCLKENAMSAQKPGLHPRNRHHSRYDLATLCQVNPELRQFLTLTPAGEQSVDFANPLAVKALNKALLAHFYAVANWDIPDGFLCPPVPGRADYIHHLADLLAEASGTIPANASILDIGVGANCIYPLIGVHEYGWRFTGSETSSQALSSAQAIISSNPGLNRAIRLRRQKESGAIFNGIIHKNEQYDATLCNPPFHDSAAAARAGSERKRRNLGLNKDDALNFGGQQQELWCEGGEVTFIKKMIEESKGFAKQVMWFTSLVSRGENLPPLYRALTDVGAVKVVKKEMAQGQKQSRFIAWTFMNDEQRRRFVNRQR” here?
The value was “soluble”.

With “MNPNFTTEHTWQGRHDPEDGQAGRRVHHIACPIQVGELANQEPGVALIGFECDAGVERNKGRTGAKHAPSLIKQALANLAWHHPIPIYDLGNIRCEGDELEQAQQECAQVIQQALPHARAIVLGGGHEIAWATFQGLAQHFLATGVKQPRIGIINFDAHFDLRTFESELAPVRPSSGTPFNQIHHFCQQQGWDFHYACLGVSRASNTPALFERADKLGVWYVEDKAFSPLSLKDHLTQLQHFIDDCDYLYLTIDLDVFPAASAPGVSAPAARGVSLEALAPYFDRILHYKNKLMIADIAEYNPSFDIDQHTARLAARLCWDIANAMAEQVQSIRHP” as the sequence, how does the “soluble on expression in E. coli” value read?
The value was “soluble”.

Which “soluble on expression in E. coli” value does the source give for “MGSDKIHHHHHHMTMIRVNDVLSVGPQPSISEIRSLAGHGFAGMINARPDGEEASQPGNAAEREAAGHADVPYTFIPVTMPTITEADVRAFQRAMADAGGPVFAHCKTGTRALTLYALGEALDGRMSSQDMAALGQKLGIDLSAASRWFEAHRQLRPDVKGFFDPRTGSVQYVVSDPDTRKCAIVDPVLDFDEKSGATTTRNADAMLSYIAENGLSVEWILDTHPHADHFSAAQYLKEKTGAPTAIGAPVVDVQRLWRGIYNWPELRVDGSQWDRLFSDGDTFKVGSMAARVMFSPGHTLASITYVIGNAAFVHDTIFMPDSGTARADFPGGDARVLWKSIQKILDLPDETRLFTGHDYQPGGRAPKWESTVGEQKRANAHLAGVNEEAFAGLRVARDRTLPMPKLILHALQVNIQAGRLPEPEPNGTRYLKFPLDALQGAVW” here?
Its value is “not soluble”.

Which “soluble on expression in E. coli” value does the source give for “MKIVKAEVFVTCPGRNFVTLKITTEDGITGLGDATLNGRELSVASYLQDHLCPRLIGRDAHRIEDIWQFFYKGAYWRRGPVTMSAISAVDMALWDIKAKAANMPLYQLLGGASREGVMVYCHTTGHSIDEALDDYARHQELGFKAIRVQCGIPGMKTTYGMSKGKGLAYEPATKGQWPEEQLWSTEKYLDFMPKLFDAVRNKFGFNEHLLHDMHHRLTPIEAARFGKSIEDYRMFWMEDPTPAENQECFRLIRQHTVTPIAVGEVFNSIWDCKQLIEEQLIDYIRTTLTHAGGITGMRRIADFASLYQVRTGSHGPSDLSPVCMAAALHFDLWVPNFGVQEYMGYSEQMLEVFPHNWTFDNGYMHPGDKPGLGIEFDEKLAAKYPYEPAYLPVARLEDGTLWNR” here?
The value was “not soluble”.

Which “soluble on expression in E. coli” value does the source give for “GAMDTMESIVLNTIVTGLQEPKKEFIARVIKTIGSQRSLQLYENAMKVENSGGLLTADMSRRKTIGGVFCYLLKQLVAEDQITIQEWNYIRQEEKERINAKNILKRNNRRCQV” here?
Its value is “soluble”.

With “MGSDKIHHHHHHMLSVEKLACTHGDSHYLFDEVTFSLNPGERILISGYSGCGKSTLALLLSGLKESGKGQVLLNGSLIEPSDVGFLFQNPDLQFCMDTVAHELYFILENLQIEPEQMQDRSEFVLAQVGLKGFQNRLIYTLSQGEKQRLALATIFLKSPKLIILDEAFANLDQESASQLLQLVLNYQANNQSMLIVIDHLITYYQDIMDHYFWLEKRLTRVNFDYMLNRLNVFELEKKSHNTGDKLLSIKDFQVKLSKNKFISYLDFDLASGERLCLDGPSGVGKSSLFMGLLGLYRTKGKKQFTHRKQIPISFLFQNPLDQFIFSTVYDEIFQVCKDSNKARDILETINLWDKKQFSPFQLSQGQQRRLAIGSILASDSKLLLLDEPTYGQDAYHANMITTLLLSYCHKNHCGVIFTSHDPHLKECFATRFLEVSSCSI” as the sequence, how does the “soluble on expression in E. coli” value read?
The value was “not soluble”.

For “MPSETLWEIAKAEVEKRGINGSEGDGAEIAEKFVFFIGSKNGGKTTIILRCLDRDEPPKPTLALEYTYGRRAKGHNTPKDIAHFWELGGGTSLLDLISIPITGDTLRTFSLVLVLDLSKPNDLWPTMENLLQATKSHVDKVIMKLGKTNAKAVSEMRQKIWNNMPKDHPQDHELIDPFPVPLVIIGSKYDVFQDFESEKRKVICKTLRFVAHYYGASLMFTSKSEALLLKIRGVINQLAFGIDKSKSICVDQNKPLFITAGLDSFGQIGSPPVPENDIGKLHAHSPMELWKKVYEKLFPPKSINTLKDIKDPARDPQYAENEVDEMRIQKDLELEQYKRSSSKSWKQIELDS”, which “soluble on expression in E. coli” value is on record?
The value was “not soluble”.

Which “soluble on expression in E. coli” value does the source give for “MVSDISNSRILRRRSSTFTDPTNLLAVHELRSRILQDPAISVKHLSDDVHRIRHEDWWLDRFLGSVNYDVDIAYAIMLECLKWRRNFEVDRISLLSLKPLLDNQLMYLHGKDLQNRHMLWIMMNKYKNGDDGFEKLFTFWIERHYMEYKGCQPLTVFIDMTGTGLKNMSFDAMKFIIHSSKYYYPNSIESILIFENPAILNASWKVIGSWLESSAASQRHDLLTFVTKLSVTHYVPKSHLLEHQGGTDTFKFTMDELAKCLPPPPPPKPSPKLLQQRMHSIDDSTNNNNVKFDEESTTKRAPSLSRRSSRGPKSRKSHIPPSLRPLIENRVNAPSDDWSSNDFVSITPRDELRLEKLDGENDLLDVVLVKNQSSDTPIMFKFKTTSPEKFRVRPSSGIVQPGTTEIIRVYLQYGESTDTRGTKKSFCFLQWNRHQQTLKASLNSSNQQATRQNSNSNVDCQKI” here?
Its value is “not soluble”.

For “MSDESPAFALHSGSSRQRKSLEFRFQQSPRWAPYSSASDGNEQKTSLVNNSLTRPNSSNPQCLNEENGFDRDSTAISTSFRSLLSLSESSVPWETPTNNQSSSLTHCSYPRVFCNPVSVCENPEPDHTQEDSSTNPGSSIMMSTRNHQGSPVEEEVSPNSSSNDMLLDVERSNDTEVANPRSEQGSMTHQRCGICKKLLSQKSPWSSYKILRSRDMPATGVFPCHHVYHVECLDKATPTAQTRDPSCPVCSNTIGVMEQPLIAPETLQMALRSLRRSRTALELETVRVPSNDNQRRHNTRRSHKWDKLSCCLNISFSSSS”, which “soluble on expression in E. coli” value is on record?
Its value is “soluble”.

For “MSLRIGVAGVGKLGEFHTNLLKQIAAEASDVEFSGVFDLNPERLQEIGKKYGVACFSTLEELAASCDAAVIATTTSSHYAIARQLLEARLHLFIEKPITATLEEADKLIRIEQEKGLTIQVGHIERFNPALLAVEPYIGEPMYIQAERLSGFSRRVTDVSVVLDLMIHDIDLVLSLIKSDIRSIAASGVKVFSNELDMATARIEFENGAIANVTASRLSRSKLRKMRFFTRNPKSYASLDFTSGKSEVFRLVPPDQLSSKNPIKNFATKKILEQFGEIQESLKEMALDYVSPDVPKINALKEELEQFIDAIRKGKPAKVTSEEGRRALMVAGKITDEIRNNTADLDEGHHHHHH”, which “soluble on expression in E. coli” value is on record?
The value was “soluble”.

With “MLAPWQPLLEWWFGWGTSAQAVADEKSTLWFGKHYDADAHALFGDLVEHALAGGLEEWQQTPQGWLGLLILLDQLPRMIYRDTPRAFEGDRRAQVVAMQGLQKGWDYQLLPIQRVFVLLVLEHAEVLDWQNLCVERYRMLLDEQPEANRRLFEGFLDYAEQHQRVIARFGRFPHRNLVLERPSTSEEMDFLLEPGSRF” as the sequence, how does the “soluble on expression in E. coli” value read?
Its value is “not soluble”.

With “MGSDKIHHHHHHMMVEESLQLQNELLNKLVQGGGLKELVDSAAHFVQREVVIANTSNRVLESTFSEGFSQGEFFAVLPLQPPVPGRVQLQAGEKKAEALVVELSHDAKRLGFLFICDPGADEDNRLKVLIHQARNVFVLELQKKAELLENSRNYQDAFLFDLLYGNIEDNADIIARGKLWGWDLSLPHVVTAFELEDYESYSQDHYLVTTLHDIIQSVAQSLDKTVILMEKNEEVVLALPVEARKRRDFKAYLNMIINQVLAQAEERLAPRVIRVGVGRRYEQPSELFRSYQEAKVAVKLSALLKDKGPIVYFRELGVERILYSHDKQELLEFYREILAELEAQDKQKNELIETLENYLVYHCDLKATADALFLHPNSLRYRLKRIEEILDLDLEDFDTRVSLVIAFKIKHLIHSKERL” as the sequence, how does the “soluble on expression in E. coli” value read?
The value was “not soluble”.

Which “soluble on expression in E. coli” value does the source give for “MGSDKIHHHHHHMYDVLIIGAGPAGSSLARLIGDKYKVLLIDKRDLANENPHNLAGKCCGGLLAPDAQKMIAKLGLGIPKDILVNPQLFAVRTIDLTNNLERLYQRFYLNMDREKFDRWLVSILPKKVDKKFNAVFKDFVEIPGGYEVKYIHNGQEISAKTRVIIGADGAFSKLRRFLNQDINGPEKYIAIQEWYECPHHVPYFTAIFDEEISDFYSWIIPKENYLLLGSALKPKEKAREKYELLKTKLTQRGFNFDNKIRTEGAYLYRPKKVSQFYAGRDSIALVGEAAGGISPSSAEGISYALKSSAYLAQSLEEGIDGFLDRYKLKVKGIKLNLLLKNLKSPAMYNPLLRQLAMKSGLQSIDRTE” here?
The value was “not soluble”.

For “LRVFSSDGKLIAEFGEMRRTPIRFAEIPPNFINALLSAEDDNFANHYGVDPSSLMRAATQLVKSGHIQSGGSTITMQVAKNFFLTSERSFSRKTTEILLALQIERQLTKDEILELYVNKIYLGNRAYGIEAAAQVYYGKSIRDVSLAQMAMIAGLPKAPSRFNPLANA”, which “soluble on expression in E. coli” value is on record?
Its value is “not soluble”.

Which “soluble on expression in E. coli” value does the source give for “MGSDKIHHHHHHMAVRPYWKGYLKLSLVTCPVQMMPATSESEKVRFHTLNRETQNRVVSHYVDSVTGKEVKDEDEVKGYQRGENEYIILEDEELENVALDSTKTIDISTFTPRDSVEWIWLDTPYYLSPNDPVGQEAFSVIRDAMEAQNMVGISRLVISRRERAVMLEPRGKGIVLWTLRYGDEVRDEDTYFAGIDDEETADREMMPLVQQLIKKQTKHWDAKMVIDPVQERLLDIIAAKKKALKKSARAKPSAPAKSTPSNVINIMDALKKSVAAENRSSK” here?
Its value is “not soluble”.

Which “soluble on expression in E. coli” value does the source give for “MSEKLRRCRKELTAAIDRAFEGVRHSQECTAQQRLDAPSLTSQPVHRLLCRNPLAACPSAAPYSGASCAPESENPAFGTHHIPVNSKLQQPLYPKRKPLTSKENVLMQSSILARDRQFWRAAGDGEDWRKDSLRKDMERDLKADPNVLLSSSSQEVTKDLLDMIDHTSIRTIEELAGKLEFENELNRVCGHCQDSPFKEEAWALLVDESPQKALDADPGSLKQALDDQNIVETVLDLEEDYNLMTSFKYQIE” here?
Its value is “soluble”.

With “SLSSTVSYWILNSTRNSIATLQGGRRLYSRYVSNRNKLKWRLFSRVPPTLNSSPCGGFTLCKAYRHTSTEEDDFHLQLSPEQINEVLRAGETTHKILDLESRVPNSVLRFESNQLAANSPVEDRRGVASCLQTNGLMFGIFDGHGGHACAQAVSERLFYYVAVSLMSHQTLEHMEGAMESMKPLLPILHWLKHPGDSIYKDVTSVHLDHLRVYWQELLDLHMEMGLSIEEALMYSFQRLDSDISLEIQAPLEDEVTRNLSLQVAFSGATACMAHVDGIHLHVANAGDCRAILGVQEDNGMWSCLPLTRDHNAWNQAELSRLKREHPESEDRTIIMEDRLLGVLIPCRAFGDVQLKWSKELQRSILERGFNTEALNIYQFTPPHYYTPPYLTAEPEVTYHRLRPQDKFLVLASDGLWDMLSNEDVVRLVVGHLAEADWHKTDLAQRPANLGLMQSLLLQRKASGLHEADQNAATRLIRHAIGNNEYGEMEAERLAAMLTLPEDLARMYRDDITVTVVYFNSESIGAYYKGG” as the sequence, how does the “soluble on expression in E. coli” value read?
The value was “not soluble”.

For “MISDRPGLPGEDMRLALLSFENYLLANRNTEKPVLHIALSPAPEDKLTDEQLAELAQNYMQKMGYGDQPYIAYKHGDTHNTHIHIVSVCVDEEGRKINDSFEHRRSMTACRELEIDFGLRNGADMEERNQKAEMKKVDATQGDVRHQIGNTLKAVLESYRFQTFGEYSALLSTLNIEAKQVRGEFKGEPYTGIIYSATDDSGKVVSPPFKSSRFGKRFGNERLEKRMLSHTRDFKDGKWAPTIHAQVVYAMRHARSREELAGLLKKARIDAVFRENEQGRIYGVTFIDHNRREVFNGSRMGKEFSANIYNELFKWWDGIPATERSAHTGTELWQHHSHKAESGSPLEQAASIFSMETNPVDYGEEALARRMKKRRKAKRKSRGILEHHHHHH”, which “soluble on expression in E. coli” value is on record?
Its value is “soluble”.
